Results on two molecules are retold here after article PMC11847536 (The Journal of Biological Chemistry, 2025).

Experiment [1] concerns the target T1, PRMT5/biotinylated WDR77 complex (UniProt O14744 1-637; Q9BQA1 1-342, biotin (site not stated)).
T1 construct: PRMT5 (protein arginine methyltransferase 5); Held by terbium-coupled streptavidin in the TR-FRET assay; copies: 4 + 4
In words: FRET or BRET; TR-FRET equilibrium binding: adaptors labeled by BODIPY-maleimide titrated into PRMT5/biotinylated WDR77 incubated with terbium-coupled streptavidin. The settings on record: both partners purified.

In experiment [2] the target is T1, PRMT5/biotinylated WDR77 complex. In words: FRET or BRET; TR-FRET displacement: unlabeled pICln, RIOK1 and ΔPBM constructs titrated to displace BODIPY-labeled pICln tracer from PRMT5/WDR77. The settings on record: both partners purified.

T1 sequence (O14744 whole entry, chain 1 of 2): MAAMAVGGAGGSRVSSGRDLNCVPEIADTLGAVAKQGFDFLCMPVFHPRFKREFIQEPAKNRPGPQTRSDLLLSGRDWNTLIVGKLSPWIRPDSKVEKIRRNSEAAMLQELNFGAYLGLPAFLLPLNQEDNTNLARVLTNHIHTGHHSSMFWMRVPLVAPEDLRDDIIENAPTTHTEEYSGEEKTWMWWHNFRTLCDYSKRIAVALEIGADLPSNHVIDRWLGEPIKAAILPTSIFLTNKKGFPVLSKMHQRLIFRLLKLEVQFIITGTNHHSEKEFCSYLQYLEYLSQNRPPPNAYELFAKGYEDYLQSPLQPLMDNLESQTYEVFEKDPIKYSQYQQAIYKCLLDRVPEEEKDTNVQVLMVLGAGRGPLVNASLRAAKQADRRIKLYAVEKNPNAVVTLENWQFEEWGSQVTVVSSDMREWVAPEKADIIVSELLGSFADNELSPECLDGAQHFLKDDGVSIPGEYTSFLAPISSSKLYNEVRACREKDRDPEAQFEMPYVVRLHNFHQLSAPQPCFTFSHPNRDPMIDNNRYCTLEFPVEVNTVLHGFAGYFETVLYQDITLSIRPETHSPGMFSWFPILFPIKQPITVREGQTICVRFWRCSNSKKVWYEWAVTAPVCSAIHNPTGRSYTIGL
T1 sequence (Q9BQA1 whole entry, chain 2 of 2): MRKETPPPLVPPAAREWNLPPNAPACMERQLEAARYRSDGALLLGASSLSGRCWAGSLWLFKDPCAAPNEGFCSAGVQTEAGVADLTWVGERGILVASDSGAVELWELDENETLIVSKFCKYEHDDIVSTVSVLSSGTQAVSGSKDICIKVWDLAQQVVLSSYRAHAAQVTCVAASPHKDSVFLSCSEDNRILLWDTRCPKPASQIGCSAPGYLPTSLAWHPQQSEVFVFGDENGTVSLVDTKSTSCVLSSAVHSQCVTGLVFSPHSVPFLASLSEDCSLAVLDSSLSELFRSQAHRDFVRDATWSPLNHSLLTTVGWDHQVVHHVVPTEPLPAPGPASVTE

B1: BODIPY-labeled pICln (natural protein, UniProt P54105 1-237, looked up)
chain: MSFLKSFPPPGPAEGLLRQQPDTEAVLNGKGLGTGTLYIAESRLSWLDGSGLGFSLEYPTISLHALSRDRSDCLGEHLYVMVNAKFEEESKEPVADEEEEDSDDDVEPITEFRFVPSDKSALEAMFTAMCECQALHPDPEDEDSDDYDGEEYDVEAHEQGQGDIPTFYTYEEGLSHLTAEGQATLERLEGMLSQSVSSQYNMAGVRTEDSIRDYEDGMEVDTTPTVAGQFEDADVDH
modifications: BODIPY (labeled by BODIPY-maleimide; site not stated)
notes: pICln, PRMT5 substrate adaptor with a PBM peptide in its C-terminal region; also called BODIPY-pICln; source: LBSTR Escherichia coli (Kerafast, EC1002), purified
B1 had a Kd in experiment [1] of 32.5 ± 3.8 nM.

B2: pICln (unlabeled) (natural protein, UniProt P54105 1-237, looked up)
chain: MSFLKSFPPPGPAEGLLRQQPDTEAVLNGKGLGTGTLYIAESRLSWLDGSGLGFSLEYPTISLHALSRDRSDCLGEHLYVMVNAKFEEESKEPVADEEEEDSDDDVEPITEFRFVPSDKSALEAMFTAMCECQALHPDPEDEDSDDYDGEEYDVEAHEQGQGDIPTFYTYEEGLSHLTAEGQATLERLEGMLSQSVSSQYNMAGVRTEDSIRDYEDGMEVDTTPTVAGQFEDADVDH
notes: pICln, PRMT5 substrate adaptor with a PBM peptide in its C-terminal region; Used free in the displacement assay and as a member of the 6S complex in the cryo-EM sample; only the PBM peptide is seen in the map; also called pICIn; source: LBSTR Escherichia coli (Kerafast, EC1002), purified
Regarding B2, the IC50 in experiment [2] was 69.5 ± 3.3 nM.

One may read the Kd as the constant that tells how readily two partners part at equilibrium. In general, IC50 refers to the concentration that gives 50% inhibition. Read a low IC50 as inhibition by little substance.
